Literature values in publication PMC8020814.

Target: C3b C3b (Homo sapiens) (UniProt P01024)
Sequence of UniProt P01024 (P01024 566-670): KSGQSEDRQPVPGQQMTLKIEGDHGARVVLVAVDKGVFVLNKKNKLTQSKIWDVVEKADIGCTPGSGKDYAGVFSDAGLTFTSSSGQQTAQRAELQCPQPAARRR

Kd: 11 µM
Substance: Factor H FH(1-4) (from UniProt P08603)
